Assay results taken from publication PMC5861054, “Crystal structure of an intramembranal phosphatase central to bacterial cell-wall peptidoglycan biosynthesis and lipid recycling” (Nature Communications, 2018).

Target: the molecule itself
Assay: cross-linking; purified UppP, room temperature 30 min, 50-fold molar excess DSS or EGS, quenched with 50 mM Tris, 12% SDS-PAGE

B1: Undecaprenyl pyrophosphate phosphatase (UppP) from Escherichia coli (enzyme, Escherichia coli K-12, UniProt P60932 1-273, looked up)
chain: MSDMHSLLIAAILGVVEGLTEFLPVSSTGHMIIVGHLLGFEGDTAKTFEVVIQLGSILAVVVMFWRRLFGLIGIHFGRPLQHEGESKGRLTLIHILLGMIPAVVLGLLFHDTIKSLFNPINVMYALVVGGLLLIAAECLKPKEPRAPGLDDMTYRQAFMIGCFQCLALWPGFSRSGATISGGMLMGVSRYAASEFSFLLAVPMMMGATALDLYKSWGFLTSGDIPMFAVGFITAFVVALIAIKTFLQLIKRISFIPFAIYRFIVAAAVYVVFF
notes: Undecaprenyl pyrophosphate phosphatase (UppP, BacA), Escherichia coli K-12 (ATCC 10798), full length, residues 1-273; Integral membrane protein, in DDM detergent (SEC, cross-linking) or monoolein lipid cubic/sponge phase (crystals); also called EcUppP; BacA; source: E. coli C41, solubilized from membranes in DDM, purified (Ni-NTA, thrombin cleavage, gel filtration); not shown: His6, N-terminal, …
stoichiometry N: 2
